Experimental data as given in patent US20150064184A1.

Columns and labels:
[1] = biological target: human insulin receptor extracellular domain (HIR ECD) (human) (UniProt P06213); assay: ELISA, HIR ECD plated (second experiment)
[2] = biological target: human insulin receptor extracellular domain (HIR ECD) (human) (UniProt P06213); assay: ELISA, HIR ECD plated; compared with the HIR Ab

## GUSB-HIR Ab fusion protein (human GUSB fused to the amino terminus of the HIR Ab heavy chain) (from UniProt P08236 23-633) (antibody)
[1]
  EC50: 4.8 nM
[2]
  reduction in receptor binding affinity against the HIR Ab: 95%
